According to patent US7026443:

B1: HPV16 E7 peptide … (position 85, 9 amino acids) (peptide)
peptide: GTLGIVCPI
modifications: not checked
B2: HPV16 E6 52 … (peptide)
peptide: FAFRDLCIV
modifications: not checked
B3: HPV16 E6 peptide … (position 94, 10 amino acids) (peptide)
peptide: TLEQQYNKPL
modifications: not checked
B4: HPV18 E1 peptide … (position 452, 10 amino acids) (peptide)
peptide: FLRYQQIEFI
modifications: not checked
B5: HPV18 E1 peptide … (position 508, 10 amino acids) (peptide)
peptide: FVNSTSHFWL
modifications: not checked
B6: HPV18 E6 32 CVYCKTVL (peptide)
peptide: CVYCKTVL
modifications: not checked
B7: HPV16 E7 peptide … (position 75, 9 amino acids) (peptide)
peptide: DIRTLEDLL
modifications: not checked
B8: HPV16 E6 peptide … (position 21, 10 amino acids) (peptide)
peptide: QLCTELQTTI
modifications: not checked
B9: HPV18 E1 546 peptide … (peptide)
peptide: ALDGNPISI
modifications: not checked
B10: HPV18 E6 32 … (peptide)
peptide: CVYCKTVLEL
modifications: not checked
B11: HPV18 E1 peptide … (position 463, 9 amino acids) (peptide)
peptide: FLGALKSFL
modifications: not checked
B12: HPV18 E1 peptide … (position 265, 10 amino acids) (peptide)
peptide: FILYAHIQCL
modifications: not checked
B13: HPV16 E6 34 … (peptide)
peptide: ILECVYCKQQL
modifications: not checked
B14: HPV18 E1 339 peptide … (SEQ ID NO: 3614) (peptide)
peptide: VMGDTPEWI
modifications: not checked
B15: HPV18 E1 325 peptide … (peptide)
peptide: ALYWYRTGI
modifications: not checked
B16: HPV18 E6 29 … (peptide)
peptide: EITCVYCKT
modifications: not checked
B17: HPV16 E6 peptide … (position 21, 9 amino acids) (peptide)
peptide: QLCTELQTT
modifications: not checked
B18: HPV16 E1 222 … (peptide)
peptide: LVRPFKSNK
modifications: not checked
B19: HPV16 E1 216 … (peptide)
peptide: GVSFSELVR
modifications: not checked
B20: HPV16 E1 403 … (peptide)
peptide: KDCATMCRH
modifications: not checked
B21: HPV16 E1 454 … (peptide)
peptide: MSFLTALKR
modifications: not checked
B22: HPV16 E1 277 … (peptide)
peptide: LLVRYKCGK
modifications: not checked
B23: HPV16 E1 403 … (peptide)
peptide: KDCATMCRHY
modifications: not checked
B24: HPV16 E1 305 … (peptide)
peptide: MMIEPPKLR
modifications: not checked
B25: HPV18 E6 68 … (peptide)
peptide: CIDFYSRIR
modifications: not checked
B26: HPV18 E1 426 … (peptide)
peptide: QMNMSQWIR
modifications: not checked
B27: HPV18 E1 412-420 peptide … (peptide)
peptide: CATMCKHYR
modifications: not checked
B28: HPV18 E6 101 … (peptide)
peptide: LLIRCLRCQK
modifications: not checked
B29: HPV18 E1 393 … (peptide)
peptide: NSNAAAFLK
modifications: not checked
B30: HPV18 E6 27 … (peptide)
peptide: DIEITCVYCK
modifications: not checked
B31: HPV18 E1 peptide … (position 322, 9 amino acids) (peptide)
peptide: SVAALYWYR
modifications: not checked
B32: … (HPV16 E6, position 106, 10 amino acids) (peptide)
peptide: LLIRCINCQK
modifications: not checked
B33: … (HPV16 E6, position 75, 10 amino acids) (peptide)
peptide: KFYSKISEYR
modifications: not checked
B34: HPV18 E1 284-292 peptide … (peptide)
peptide: ALLRYKCGK
modifications: not checked
B35: … (HPV16 E6, position 107, 9 amino acids) (peptide)
peptide: LIRCINCQK
modifications: not checked
B36: HPV18 E1 229 … (peptide)
peptide: LVRNFKSDK
modifications: not checked
B37: HPV18 E6 102 … (peptide)
peptide: LIRCLRCQK
modifications: not checked
B38: HPV18 E6 43 EVFEFAFK (peptide)
peptide: EVFEFAFK
modifications: not checked
B39: … (HPV16 E6, position 93, 9 amino acids) (peptide)
peptide: TTLEQQYNK
modifications: not checked
B40: HPV18 E1 312 … (peptide)
peptide: MLIQPPKLR
modifications: not checked
B41: HPV18 E6 83 … (peptide)
peptide: DSVYGDTLEK
modifications: not checked
B42: HPV18 E1 460-468 peptide … (peptide)
peptide: FITFLGALK
modifications: not checked
B43: HPV18 E1 428 … (peptide)
peptide: NMSQWIRFR
modifications: not checked

Each binder was assayed against HLA-A*0201 (human). Details: not given.
B1 gave a relative binding ratio (IC50 of standard peptide / IC50 of test peptide) of 0.021.
B2 showed a binding affinity ratio (IC50 of standard peptide / IC50 of test peptide) of 0.051.
Work on B3 yielded a relative binding ratio (IC50 of standard peptide / IC50 of test peptide) of 0.0001.
For B4, the binding affinity ratio (IC50 of the standard peptide / IC50 of the test peptide) was 0.0025.
Binder B5 has a binding affinity ratio (IC50 of the standard peptide / IC50 of the test peptide) of 0.062.
In the case of B6, the binding affinity ratio (IC50 of the standard peptide / IC50 of the test peptide) is reported as 0.0002.
B7 was tested, and the relative binding ratio (IC50 of standard peptide / IC50 of test peptide) was 0.0003.
B8 was tested, and the relative binding ratio (IC50 of standard peptide / IC50 of test peptide) was 0.0012.
B9 was tested, and the relative binding ratio (IC50 of standard peptide / IC50 of test peptide) (ratio to standard peptide) was 0.021.
B10 showed a binding affinity ratio (IC50 of the standard peptide / IC50 of the test peptide) of 0.0001.
B11 gave a binding affinity ratio (IC50 of the standard peptide / IC50 of the test peptide) of 0.045.
For B12, the binding affinity ratio (IC50 of the standard peptide / IC50 of the test peptide) was 0.032.
For B13, the binding affinity ratio (IC50 of standard peptide / IC50 of test peptide) was 0.0004.
In the case of B14, the relative binding ratio (IC50 of standard peptide / IC50 of test peptide) is reported as 0.007.
In the case of B15, the relative binding ratio (IC50 of standard peptide / IC50 of test peptide) (ratio to standard peptide) is reported as 0.0032.

Same assay, conditions: remark: other sources report otherwise
With B16 the binding affinity ratio (IC50 of the standard peptide / IC50 of the test peptide) was 0.0001.
In the case of B17, the relative binding ratio (IC50 of standard peptide / IC50 of test peptide) is reported as 0.0001.

What follows are binders tested against HLA-A*0301 (human). Details: not given.
For B18, the binding affinity ratio (IC50 of standard peptide / IC50 of test peptide) was 0.07.
B19 showed a binding affinity ratio (IC50 of standard peptide / IC50 of test peptide) (ratio to standard peptide) of 0.0011.
B20 gave a binding affinity ratio (IC50 of standard peptide / IC50 of test peptide) (ratio to standard peptide) of 0.0011.
For B21, the binding affinity ratio (IC50 of standard peptide / IC50 of test peptide) was 0.087.
Work on B22 yielded a binding affinity ratio (IC50 of standard peptide / IC50 of test peptide) of 0.0043.
Work on B23 yielded a binding affinity ratio (IC50 of standard peptide / IC50 of test peptide) (ratio to standard peptide) of 0.0005.
B24 showed a binding affinity ratio (IC50 of standard peptide / IC50 of test peptide) of 0.001.

These binders were tested against HLA-A*1101 (human). Details: not given.
Binder B25 has a binding affinity ratio (IC50 of standard peptide / IC50 of test peptide) of 0.0001.
Work on B26 yielded a binding affinity ratio (IC50 of standard peptide / IC50 of test peptide) of 0.0023.
With B27 the relative binding ratio (IC50 of standard peptide / IC50 of test peptide) was 0.011.
For B28, the binding affinity ratio (IC50 of standard peptide / IC50 of test peptide) was 0.12.
B18 was tested, and the binding affinity ratio (IC50 of standard peptide / IC50 of test peptide) (ratio to standard peptide) was 1.8.
B29 showed a binding affinity ratio (IC50 of standard peptide / IC50 of test peptide) of 0.37.
B19 was tested, and the relative binding ratio (IC50 of standard peptide / IC50 of test peptide) was 0.018.
Work on B30 yielded a binding affinity ratio (IC50 of standard peptide / IC50 of test peptide) of 0.0021.
With B31 the relative binding ratio (IC50 of standard peptide / IC50 of test peptide) was 8.8.
B32 gave a binding affinity ratio (IC50 of standard peptide / IC50 of test peptide) (ratio to standard peptide) of 0.18.
For B20, the relative binding ratio (IC50 of standard peptide / IC50 of test peptide) was 0.0002.
B33 was tested, and the binding affinity ratio (IC50 of standard peptide / IC50 of test peptide) (ratio to standard peptide) was 0.0002.
In the case of B34, the relative binding ratio (IC50 of standard peptide / IC50 of test peptide) is reported as 0.14.
For B21, the binding affinity ratio (IC50 of standard peptide / IC50 of test peptide) (ratio to standard peptide) was 0.098.
In the case of B22, the binding affinity ratio (IC50 of standard peptide / IC50 of test peptide) (ratio to standard peptide) is reported as 0.0033.
In the case of B35, the binding affinity ratio (IC50 of standard peptide / IC50 of test peptide) (ratio to standard peptide) is reported as 0.0009.
For B23, the relative binding ratio (IC50 of standard peptide / IC50 of test peptide) was 0.0002.
Work on B36 yielded a binding affinity ratio (IC50 of standard peptide / IC50 of test peptide) of 0.0002.
B37 showed a binding affinity ratio (IC50 of standard peptide / IC50 of test peptide) of 0.0012.
B38 was tested, and the binding affinity ratio (IC50 of standard peptide / IC50 of test peptide) was 0.018.
With B39 the relative binding ratio (IC50 of standard peptide / IC50 of test peptide) was 0.29.
In the case of B40, the binding affinity ratio (IC50 of standard peptide / IC50 of test peptide) is reported as 0.0014.
B41 gave a binding affinity ratio (IC50 of standard peptide / IC50 of test peptide) of 0.0051.
B42 gave a relative binding ratio (IC50 of standard peptide / IC50 of test peptide) of 0.037.
For B24, the binding affinity ratio (IC50 of standard peptide / IC50 of test peptide) (ratio to standard peptide) was 0.0086.
Binder B43 has a binding affinity ratio (IC50 of standard peptide / IC50 of test peptide) of 0.0012.
